From article doi:10.1101/787473 (2019)

Molecular target: full length human importin β (KPNB1), expressed from pET30a-WT Importin β (pKW485) (human, UniProt Q14974 1-876)
Assay: FRET; displacement of importin β-bound Rango sensor

Chain of full length human importin β (KPNB1), expressed from pET30a-WT Importin β (pKW485) (Q14974 whole entry): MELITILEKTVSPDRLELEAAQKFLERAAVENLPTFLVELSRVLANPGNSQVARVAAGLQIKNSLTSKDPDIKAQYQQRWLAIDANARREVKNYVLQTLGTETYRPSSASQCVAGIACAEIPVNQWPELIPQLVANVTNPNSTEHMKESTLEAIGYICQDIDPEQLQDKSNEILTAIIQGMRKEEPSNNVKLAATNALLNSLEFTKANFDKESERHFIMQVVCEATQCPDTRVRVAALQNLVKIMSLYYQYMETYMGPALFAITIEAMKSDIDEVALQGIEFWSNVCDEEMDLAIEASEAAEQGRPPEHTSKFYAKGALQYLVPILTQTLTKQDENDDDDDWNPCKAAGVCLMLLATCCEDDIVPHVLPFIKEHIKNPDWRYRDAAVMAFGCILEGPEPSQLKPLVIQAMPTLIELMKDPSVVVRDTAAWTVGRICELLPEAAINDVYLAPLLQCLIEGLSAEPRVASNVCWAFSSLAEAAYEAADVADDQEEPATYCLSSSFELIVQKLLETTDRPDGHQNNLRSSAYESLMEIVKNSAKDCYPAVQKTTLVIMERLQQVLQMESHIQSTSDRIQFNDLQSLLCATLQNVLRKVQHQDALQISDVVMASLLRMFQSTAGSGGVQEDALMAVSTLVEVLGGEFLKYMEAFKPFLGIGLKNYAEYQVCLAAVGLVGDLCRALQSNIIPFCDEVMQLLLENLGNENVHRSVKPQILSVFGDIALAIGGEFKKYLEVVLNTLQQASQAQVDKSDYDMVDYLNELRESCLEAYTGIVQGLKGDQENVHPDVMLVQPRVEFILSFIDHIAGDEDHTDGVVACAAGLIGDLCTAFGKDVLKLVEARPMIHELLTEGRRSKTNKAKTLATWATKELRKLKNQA

Kd [nM]	Binder
17.4	GRGRGRGRGRGRGRGRGRGRKC
8.2	PRPRPRPRPRPRPRPRPRPRKC
